Source: patent US20080025989A1 (Seagen, published 2008)

What was measured:
human CD70 [1] = molecular target: T1, human CD70 (human, UniProt P32970 1-193); assay: cell-based or functional assay
T1 sequence (looked up): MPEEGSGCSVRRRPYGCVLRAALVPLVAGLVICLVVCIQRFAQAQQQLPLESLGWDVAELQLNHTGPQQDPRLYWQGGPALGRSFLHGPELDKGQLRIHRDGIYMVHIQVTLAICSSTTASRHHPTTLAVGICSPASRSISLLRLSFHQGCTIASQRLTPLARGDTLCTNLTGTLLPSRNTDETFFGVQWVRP

human CD70 [2] = molecular target: T1, human CD70; assay: cell-based or functional assay; remark: listed apart in the source
human CD70 [3] = molecular target: T1, human CD70; assay: cell-based or functional assay; remark: listed apart in the source
human CD70 [4] = molecular target: T1, human CD70; assay: cell-based or functional assay; remark: listed apart in the source
human CD70 [5] = molecular target: T1, human CD70; assay: flow cytometry on allo-activated T cells after 5 days of MLR
Source text: In the second system, an MLR was set up between PBMC and an irradiated allogeneic stimulator CESS. Allogeneic activation of peripheral blood T cells was achieved by conventional mixed lymphoycte reactions (MLR). MLR were initiated by mixing PBMCs and irradiated allogeneic Epstein-Barr virus (EBV)-transformed B lymphoblastoid CESS cells (ATCC, Manassas, Va.) at a ratio of one T cell to ten irradiated CESS cells. T cell density was adjusted to 0.25×10⁶ T cells/ml of RPMI-1640 supplemented with 10% FBS and 2 mM L-glutamine. Rapid proliferation and expansion of alloreactive T cells was observed after approximately 96 hours of culture. After 5 days of stimulation, cells were assessed for CD70 expression using the anti-CD70 mAb 1F6 by flow cytometry. […] In parallel cultures in 96-well plates, graded doses of either 1F6-vcMMAE or 1F6-vcAFP were included in the cultures at initiation. DNA synthesis was assayed during the last 16 hours of the 5-day culture by a pulse of ³H-TdR.

human CD70 [6] = molecular target: T1, human CD70; assay: immunohistochemistry on frozen RCC tumor sections, 2 µg/ml
Protocol: Immunohistochemistry was used to determine if over-expression of CD70 transcript in RCC was paralleled by CD70 protein expression. Frozen RCC tissue sections and normal adjacent tissue sections from two patients independent of those used in CD70 transcript analysis (FIGS. 6 and 7) were fixed in acetone at −20° C. for 10 minutes. After rehydration in PBS, sections were blocked with PBS containing 5% normal goat serum and Avidin D for 30 minutes at room temperature, and washed in PBS. Sections were incubated with the anti-CD70 mAb 2F2 or non-binding IgG at 2 μg/ml in PBS containing 5% normal goat serum with biotin for 60 minutes at room temperature. After washes with PBS, biotinylated anti-mouse IgG (VECTASTAIN ABC Kit, Vector Laboratories, Burlingame, Calif.) at a 1:250 dilution in PBS containing 5% normal goat serum was used to detect bound primary antibody by incubating for 30 minutes at room temperature. Excess biotinylated anti-mouse IgG was removed by PBS washes. Sections were quenched with 1% H₂O₂ in PBS for 30 minutes at room temperature, washed, and then incubated with the VECTASTAIN ABC complex made up according to the manufacturer's instructions. After PBS washes, sections were incubated for 30 minutes at room temperature with the DAB solution (VECTASTAIN ABC Kit) made up according to the manufacturer's instructions for color development. […]

B1: 1F6-vcAFP (antibody, V domains shown)
VH: QIQLVQSGPEVKKPGETVKISCKASGYTFTNYGMNWVKQAPGKGLKWMGWINTYTGEPTYADAFKGRFAFSLETSASTAYLQINNLKNEDTATYFCARDYGDYGMDYWGQGTSVTVSS
VL: DIVLTQSPASLAVSLGQRATISCRASKSVSTSGYSFMHWYQQKPGQPPKLLIYLASNLESGVPARFSGSGSGTDFTLNIHPVEEEDAATYYCQHSREVPWTFGGGTKLEIKR
modifications: maleimidocaproyl-val-cit-AFP on cysteine thiols of the DTT-reduced antibody (positions not stated)
- IC50, cytotoxicity (alamarBlue) on CD70+ RCC lines (human CD70 [1]): < 0.02 µg/mL
- IC50, proliferation of activated CD70-expressing T cell clones C2A, 40D8 and 4.01.1 (human CD70 [1]): < 0.05 µg/mL

B2: 1F6-vcMMAE (antibody, V domains shown)
VH: B1 VH
VL: B1 VL
modifications: maleimidocaproyl-val-cit-PAB-MMAE on cysteine thiols of the DTT-reduced antibody (positions not stated)
- IC50, proliferation of Caki-1 cells (human CD70 [1]): < 0.02 µg/mL
- IC50, proliferation of Caki-2 cells (human CD70 [1]): < 0.02 µg/mL

B3: chimeric 1F6(c1F6)-vcMMAF4 (antibody, V domains shown)
VH: B1 VH
VL: B1 VL
modifications: val-cit-MMAF drug-linker, average of four per antibody (positions not stated)
- IC50 (ng/mL), cytotoxicity on DBTRG-05MG cells (human CD70 [2]): 2.3 ng/mL
- IC50 (ng/mL), cytotoxicity on GMS-10 cells (human CD70 [2]): 27 ng/mL
- IC50 (ng/mL), cytotoxicity on SNB-19 cells (human CD70 [2]): 12 ng/mL
- IC50 (ng/mL), cytotoxicity on U251 cells (human CD70 [2]): 5.3 ng/mL
- IC50 (ng/mL), cytotoxicity on U373MG cells (human CD70 [2]): 16 ng/mL
- IC50 (ng/mL), cytotoxicity on Hs445 cells (human CD70 [3]): 7.3 ng/mL
- IC50 (ng/mL), cytotoxicity on KMH2 cells (human CD70 [3]): 0.41 ng/mL
- IC50 (ng/mL), cytotoxicity on L428 cells (human CD70 [3]): 1.4 ng/mL
- IC50 (ng/mL), cytotoxicity on RPMI-6666 cells (human CD70 [3]): 42 ng/mL
- IC50 (ng/mL), cytotoxicity on SUP-HD-1 cells (human CD70 [3]): 6.3 ng/mL
- IC50 (ng/mL), cytotoxicity on AMO-1 cells (human CD70 [4]): 16 ng/mL
- IC50 (ng/mL), cytotoxicity on JJN-3 cells (human CD70 [4]): 46 ng/mL
- IC50 (ng/mL), cytotoxicity on L363 cells (human CD70 [4]): 78 ng/mL
- IC50 (ng/mL), cytotoxicity on LB cells (human CD70 [4]): 80 ng/mL
- IC50 (ng/mL), cytotoxicity on LP-1 cells (human CD70 [4]): 160 ng/mL
- IC50 (ng/mL), cytotoxicity on MM.1R cells (human CD70 [4]): 13 ng/mL
- IC50 (ng/mL), cytotoxicity on MM.1S cells (human CD70 [4]): 20 ng/mL
- IC50 (ng/mL), cytotoxicity on MOLP-8 cells (human CD70 [4]): 73 ng/mL
- IC50 (ng/mL), cytotoxicity on U266 cells (human CD70 [4]): 1.2 ng/mL

B4: 1F6-vcMMAF (antibody, V domains shown)
VH: B1 VH
VL: B1 VL
modifications: MC-Val-Cit-PAB-MMAF on cysteine thiols of the DTT-reduced antibody (positions not stated)
- IC50, cytotoxicity (alamarBlue) on CD70+ RCC lines (human CD70 [1]): < 0.03 µg/mL
- IC50, proliferation inhibition of all CD70+ RCC lines tested (human CD70 [1]): < 0.03 µg/mL

B5: chimeric 1F6 (c1F6)-mcMMAF4 (antibody, V domains shown)
VH: B1 VH
VL: B1 VL
modifications: maleimidocaproyl-MMAF drug-linker, average of four per antibody (positions not stated)
- IC50 (ng/mL), cytotoxicity on DBTRG-05MG cells (human CD70 [2]): 20 ng/mL
- IC50 (ng/mL), cytotoxicity on GMS-10 cells (human CD70 [2]): 110 ng/mL
- IC50 (ng/mL), cytotoxicity on SNB-19 cells (human CD70 [2]): 27 ng/mL
- IC50 (ng/mL), cytotoxicity on U251 cells (human CD70 [2]): 15 ng/mL
- IC50 (ng/mL), cytotoxicity on U373MG cells (human CD70 [2]): 35 ng/mL
- IC50 (ng/mL), cytotoxicity on Hs445 cells (human CD70 [3]): 310 ng/mL
- IC50 (ng/mL), cytotoxicity on KMH2 cells (human CD70 [3]): 5.2 ng/mL
- IC50 (ng/mL), cytotoxicity on L428 cells (human CD70 [3]): 35 ng/mL
- IC50 (ng/mL), cytotoxicity on RPMI-6666 cells (human CD70 [3]): 230 ng/mL
- IC50 (ng/mL), cytotoxicity on SUP-HD-1 cells (human CD70 [3]): 53 ng/mL
- IC50 (ng/mL), cytotoxicity on AMO-1 cells (human CD70 [4]): 38 ng/mL
- IC50 (ng/mL), cytotoxicity on JJN-3 cells (human CD70 [4]): 61 ng/mL
- IC50 (ng/mL), cytotoxicity on L363 cells (human CD70 [4]): 210 ng/mL
- IC50 (ng/mL), cytotoxicity on LB cells (human CD70 [4]): 500 ng/mL
- IC50 (ng/mL), cytotoxicity on LP-1 cells (human CD70 [4]): 155 ng/mL
- IC50 (ng/mL), cytotoxicity on MM.1R cells (human CD70 [4]): 20 ng/mL
- IC50 (ng/mL), cytotoxicity on MM.1S cells (human CD70 [4]): 22 ng/mL
- IC50 (ng/mL), cytotoxicity on MOLP-8 cells (human CD70 [4]): 33 ng/mL
- IC50 (ng/mL), cytotoxicity on U266 cells (human CD70 [4]): 1.7 ng/mL

B6: anti-human CD70 monoclonal antibody 1F6 (antibody, mouse IgG1, V domains shown)
VH: B1 VH
VL: B1 VL
notes: Murine hybridoma mAb from the Netherlands Red Cross Blood Transfusion Service; they were cloned with mouse IgG1 and kappa gene-specific primers; Used AlexaFluor488-conjugated for flow cytometry where necessary; also called mAb 1F6; AF-conjugated 1F6
- binding result (human CD70 [5]): binds

B7: anti-human CD70 monoclonal antibody 2F2 (antibody, mouse IgG1, V domains shown)
VH: QVQLQQSGTELMTPGASVTMSCKTSGYTFSTYWIEWVKQRPGHGLEWIGEILGPSGYTDYNEKFKAKATFTADTSSNTAYMQLSSLASEDSAVYYCARWDRLYAMDYWGGGTSVTVSS
VL: DIVLTQSPASLTVSLGQKTTISCRASKSVSTSGYSFMHWYQLKPGQSPKLLIYLASDLPSGVPARFSGSGSGTDFTLKIHPVEEEDAATYYCQHSREIPYTFGGGTKLEITR
notes: Murine hybridoma mAb; they were cloned with mouse IgG1 and kappa gene-specific primers; also called mAb 2F2
- binding result (human CD70 [6]): binds
